experiment: soluble on expression in E. coli; label from the status in PepcDB or PDB records

| Sequence | soluble on expression in E. coli |
| --- | --- |
| MAVMKVLIVEDETAAYENLTDILTEITPDIRIMANTESVTQTVGWLQSNPAPDLIFMDIHLSDGSAFAIFDRIELETPIIFTTAYDRYAIEAFKVNSIDYLLKPVKVEDVEHALEKYSKLTRQDLLQYLSQLTLLKPAPRYKDKLLIAHKDKLLPVNIKNISYFYATGKNTYVCLKDGNRYPYSKTLEQIASSLNPEDFIRANKQFIVARDSVTDITIWFDNRLLITLDTEVPERIYVSKNKASEFKTWLVNDK | not soluble |
| MIRLPLLPTVIKNLFKKPATNPFPKTEPVPVPEDFRGKLVYNVDKCVGCRMCVTVCPAGVFVYLPEIRKVTLWIGRCVMCKQCVDVCPTAALQMSDEFLLASYDKYDAKLIYLTPEEAEDIKKKLEEANKAKAEKQASK | not soluble |
| MGSDKIHHHHHHMANVIKLHKGLNINLKGKPAQEFFDVKQPDIYAIVPDDFHGVTPKVVVKEQEYVTAGGTLFVDKNHPEVKFVSPVSGVVTSVERGERRKVLSISIAAAKEQDYEEFGKKDVSTLTGEQVKAALLEAGLFSFIIQRPYIVVADPNAKPKGIFVSAFDTNPLAADFEFVLKGQEKDFQTGLDALAKMAKTYLNISVEQKSPALTNAKNVTVTAFDGPNPAGNVGVQINHISPINKGETVWTLRAEEVIFIGRLFNTGRVDLTRTIALTGSEVKKPAYCKLKVGALLTDIFAGRVNGGKNLRYINGNVLTGTLVKPNGFLGAHATSLTVIPEGDDRHEFLGFIMPRTDQYSANRSYFSWLCGNKEYTLDARIKGGERHMIMSGEYDKVFPMSIFPEYLIKAIIAGDIDRMEALGIYEVAPEDFAVCEFVDSSKLELQRIVRQGLDMLRKEMC | not soluble |
| SNAMILIDGKSLSKDLKERLATQVQEYKHHTAITPKLVAIIVGNDPASKTYVASKEKACAQVGIDSQVITLPEHTTESELLELIDQLNNDSSVHAILVQLPLPAHINKNNVIYSIKPEKDVDGFHPTNVGRLQLRDKKCLESCTPKGIMTMLREYGIKTEGAYAVVVGASNVVGKPVSQLLLNAKATVTTCHRFTTDLKSHTTKADILIVAVGKPNFITADMVKEGAVVIDVGINHVDGKIVGDVDFAAVKDKVAAITPVPGGVGPMTITELLYNTFQCAQELNR | soluble |
| TLTTPPLELSDAIEYILMPLKAVHFPVYEVALMLSIALRFVPTLMDETEKIMNAQRARGVDFGEGNIFQQMRAVVPLLIPLFVSSFNRAEDLATAMEARGYQGGEGRSKYRILKWHQRDTWATGCFAILTVALIFLRA | not soluble |
| MGSDKIHHHHHHMIVGIDVGGTNTDVAVLEGNVFQIKSFRTSEVIQNLSDFIEKNFGDAEAVGIGVAVWFVDGKPVKAPNLPAIPKMELDVPFIVDNDANCFAYFAAKTLNFRHLLAVTVGTGIGGGIVADGKIYRGRGAAGEIGHTFVGGRKRCRCGGEGHLEAYFGGWAMENVKELIDTGEIYSTAEFALFCRSLANAVMLLNPEAIALGGRIGGRLDERPLAEKVNRYLPEEIDVVVRVVKDDYAVAKGAALLALDTISQNLP | not soluble |
| FFTPPHIVQLCVRLVDDFADGMTFHDPTVGSGGMLTEAAKYYREAQGGDPSKLTFTGQEINPDIAAIARMNLSLHTLNGEIERGDSLASPGFTDGDDLERFDRVLANFPFSADWAKDDLQDDQYGRFDWHTKLPRADRGDYAFIMHIAEQLKEPDCGDESGGKAAIVIPHGVLFRKHEQRYRQPMLENDLVEAIVGLPENLFQNNSIPSAILVLNTDKPADREGEVQFIHAADEAFYEELSNQNELTDDGLDHIVENFDDWTTE | not soluble |
| SLAHVGTWDWDITNETLAWTDETYRIFGVKPQEFKATYEAFLFYIHADDRQAVIDAVNDAINNDSSYSIKHRVIRPSGEIREVLEKGQVLRDENGKASRIIGAVLDIT | not soluble |
| MSLKKTQQKEIENVTNITGVRQIELWRRDDLQHPRLDEVAEEVPVALVYNGISHVVMMASPKDLEYFALGFSLSEGIIESPRDIFGMDVVPSCNGLEVQIELSSRRFMGLKERRRALAGRTGCGVCGVEQLNDIGKPVQPLPFTQTFDLNKLDDALRHLNDFQPVGQLTGCTHAAAWMLPSGELVGGHEDVGRHVALDKLLGRRSQEGESWQQGAVLVSSRASYEMVQKSAMCGVEILFAVSAATTLAVEVAERCNLTLVGFCKPGRATVYTHPQRLSNEGHHHHHH | soluble |
| MSLKTLSDDLYKQFSNFLAVQSGIVLGDNKQYLVKSRLSPLMTQFGIESLSDLVTRAMSVRERDLKMAVVDAMTTNETLWFRDTYPFQLLTDKIFPELGKSGRPIKIWSAASSSGQEPYSIAMTALEQQVKKPGTLPGGVQIVGTDISSTMLNQCKEGVYDSLALARGLSPERKKLFFEPYGDNKMRVVERVRKLTTFRPLNLLESYSLLGKFDIIFCRNVLIYFAPEVKSKILNQFAASLNPGGYLMLGASESLAGLTDRFEMIRCNPGIVYKVKEGHHHHHH | soluble |
| MGSDKIHHHHHHMEWQAEQAYNHLPPLPLDSKLAELAETLPILKACIPARAALAELKQAGELLPNQGLLINLLPLLEAQGSSEIENIVTTTDKLFQYAQEDSQADPMTKEALRYRTALYQCFTQLSNRPLCVTTALEICSTIKSVQMDVRKVPGTSLTNQATGEVIYTPPAGESVIRDLLSNWEAFLHNQDDVDPLIKMAMAHYQFEAIHPFIDGNGRTGRVLNILYLIDQQLLSAPILYLSRYIVAHKQDYYRLLLNVTTQQEWQPWIIFILNAVEQTAKWTTHKIAAARELIAHTTEYVRQQLPKIYSHELVQVIFEQPYCRIQNLVESGLAKRQTASVYLKQLCDIGVLEEVQSGKEKLFVHPKFVTLMTKDSNQFSRYAL | not soluble |
| MISVTLSKIADVLGAEHRGADLTLDTVITDTRKVTPGCLFVALKGERFDAHDFADKAKANGAGALLVSRPLDIDLPQVIVKDTRQAFGQLAAWVRMQVPARVVALTGSSGKTSVKEMTAAILSQCGNTLYTAGNFNNDIGVPITLLRLNHDYDYAVIELGANHQGEIAWTVSLTRPEAALVNNLAAAHLEGFGSLAGVAKAKGEIYTGLPENGIAIMNADNNDWLNWQSIIGDRLVWRFSPNAANSDFTAANIHVTSHGTEFTLQTPMGSIDVLLPLPGRHNIANALAAAALSMAVGATLTAIKAGLAALKAVPGRLFPIQLSENQLVLDDAYNANVGSMTAAVQVLSEMPGYRVLVVGDMAELGAESEACHLQVGEAAKAAGIDRVLSTGKLSQAISHASGVGEHFADKAALIARLHALLQEQPMMTILVKGSRSAAMEDVVHALQEKGSC | not soluble |
| MRILSLSFSNLNSLKGEWKIDFSASPFAENGLFAITGPTGAGKTTILDAICLALYHKTPRLGGISTSSNEIMTRGTAECSAEVEFEVKGKAYRAFWSQRRSRGKVDGNLQAATVELAEVDSEKVLATQVKKKDELINTITGLDFSRFTKSMMLSQGQFAAFLNADANDRAGLLEELTGTEIYGQISEKVHEHYTASKQKLAELKAKAEGVELLSEEDKQALIDEQTELQANQKQQQAQL | not soluble |
| MSLKPQKILIATDGSEASEKAADFGIETLRFEGAKVYAVYVIDTGSYGSVPVDEKKFKKIERLEEIGHKATSYVEKKATAAGMKVESIVLKGNPAEEIVDFAEEQRVDMIVVGSLGKSGIKRFMLGSVSEKVVRRAKIPVLVVREQKEIKPQKQILIAADCSKATEKAVDFGIEIAKLNGAKVYAVHVIDPIFNDLMEEAWAENAYEQFKKIGREAVSYVEEKANAAGVKVESAVLEGNPAEEIVDFAEEQKVDMIVVGSLGKSGYEQFAIGSVSSKVLRNAKVPVLIVHDIYEFVELFRRCQKSEEVLTPVAGEKEGHHHHHH | soluble |
| GSHMSRILAVHASPRGERSQSRRLAEVFLAAYREAHPQARVARREVGRVPLPAVTEAFVAAAFHPQPEQRSLAMQADLALSDQLVGELFDSDLLVISTPMYNFSVPSGLKAWIDQIVRLGVTFDFVLDNGVAQYRPLLRGKRALIVTSRGGHGFGPGGENQAMNHADPWLRTALGFIGIDEVTVVAAEGEESGGRSFEDSCDEAEQRLLALARSA | soluble |
| MGNQMSVPQRVEGQENEPEAETYQDNASALNGVPVVVSTHTVQHLEEVDLGISVKTDNVATSSPETTEISAVADANGKNLGKEAKPEAPAAKSRFFLMLSRPVPGRTGDQAADSSLGSVKLDVSSNKAPANKDPSESWTLPVAAGPGQDTDKTPGHAPAQDKALSAARDPTLLPPETGGAGGEAPSKPKDSSFFDKFFKLDKGQEKVPGDSQQEAKRAEHQDKVDEVPGLSGQSDDVPAGKDIVDGKEKEGQELGTADCSVPGDPEGLETAKDDSQAAAIAENNNSIMSFFKTLVSPNKAETKKDPEDTGAEKSPTTSADLKSDKANFTSQETQGAGKNSKGCNPSGHTQSVTTPEPAKEGTKEKSGPTSLPLGKLFWKKVVCESPVEIIKSKEVESALQTVDLNEGDAAPEPTEAKLKREESKPRTSLMAFLRQMSVKGDGGITHSEEINGKDSSCQTSDSTEKTITPPEPEPTGAPQKGKEGSSKDKKSAAEMNKQKSNKQEAKEPAQCTEQATVDTNSLQNGDKLQKRPEKRQQSLGGFFKGLGPKRMLDAQVQTDPVSIGPVGKSK | soluble |
| MDFKTVMQELEALGKERTKKIYISNGAHEPVFGVATGAMKPIAKKIKLNQELAEELYATGNYDAMYFAGIIADPKAMSESDFDRWIDGAYFYMLSDYVVAVTLSESNIAQDVADKWIASGDELKMSAGWSCYCWLLGNRKDNAFSESKISDMLEMVKDTIHHSPERTKSAMNNFLNTVAISYVPLHEKAVEIAKEVGIVEVKRDNKKSSLLNASESIQKELDRGRLGFKRKYVRC | soluble |
| MSLSSILECIRTVGRGERGRKPLNFDQAFRVMDEYLNGECGDDQMAMLLMLIRVQNETQQEIAGFVKAFQSRMPAIGADIDWPCYAGKREAAGQPWHLLAAKILADNGHKVLMHGYHDRQPGRLHAEDYLDKFAIKKAESAEDAKRVLETQNIVYLPLSAFAPQAETMIGWKNRYGLRTPINTVVRALNPGQATVGIRGSFHPGFQQLHAEVEYEIGQTAHAVVSFKGQSGESEYNPKVSQTVWLSQPSGVTSHYWTEQMLSEVPMPTVCPFGTEETDMNQMANTVLTTIAVVLFAEMHDREQAFERAFSYWASYCAAEGHHHHHH | soluble |
| MYFPSGSDPFAVGEDLGVWAPADHQRIIAKLTTGLGVLFYHTKAIHLEPLPETMLDDAKASLVPDLSLVDNESSETPIIIEVCKTAGLKGDLRKVIQLIDDGIYGIREGFVYNYKTQQWLRYRFGDGGLTTESSFSEILNLDLNTFL | not soluble |
| MNTNDAKEYLARREIPQLFESLLNGLMCSKPEDPVEYLESCLQKVKELGGCDKVKWDTFVSQEKKTLPPLNGGQSRRSFLRNVMPENSNFPYRRYDRLPPIHQFSIESDTDLSETAELIEEYEVFDPTRPRPKIILVIGGPGSGKGTQSLKIAERYGFQYISVGELLRKKIHSTSSNRKWSLIAKIITTGELAPQETTITEIKQKLMQIPDEEGIVIDGFPRDVAQALSFEDQICTPDLVVFLACANQRLKERLL | soluble |
| MFSGGRKVKWNHFGKKYALRFSDYEMEYADLYDALLKKVHEVRADFEGDLAFIDQYGRQVIVSSDKDVREAIQQSKNKLKLHTTLRDGHVIAAADMAEAARGRPARSQSVPPERSYNMYPQRSPSSMDSAPDTYRHHPQQMTRAMSPPPMSTTTGSTHSPPLRQIGETVKTTYSHSGSYGGLYPGGYKGYPYGGGYSNSILYGMPPHNGMLWRFLANPFPFGNAQTRSFIGPNKYHHFGGYNHMYSSGFGGPVW | not soluble |

Source: the DeepSol protein solubility set
